# Measurements as given in patent US9885709B2, “Determination of a midregional proadrenomedullin partial peptide in biological fluids for diagnostic purposes, and immunoassays for carrying out such a determination” (B.R.A.H.M.S. GMBH, priority 2003, dated 2018).
# “And” between values parts separate entries of the source, which are not always exact repeats. Equal values may be shown once.
# Experiment: Stability investigation of mid-proAM in sepsis sera stored at room temperature
# Assay type: in vitro ADME
# Excerpt: For examining the question as to whether problems are likely in a measurement of mid-proAM because of insufficient stability of the mid-proAM in a sample or measuring solution, 20 sepsis sera were each measured in a fresh state and after storage for 3 days at room temperature. […] This proven stability of mid-proAM is a major advantage in terms of handling aspects for diagnosis.
substance,measurement,setting,value
"mid-proAM: peptide which contains the amino acids 45-92 of pre-proAM or consists thereof (SEQ ID NO:3); endogenous analyte, also synthesized as standard (ELRMSSSYPTGLADVKAGPAQTLIRPQDMKGASRSPEDSSPDAARIRV; listed as Homo sapiens)",immunoreactivity after storage,"20 sepsis sera, storage for 3 days at room temperature",virtually unchanged
same,Change,"Day 3 value as percent of Day 0 value, individual sepsis serum, 3 days at room temperature",92.7% and 95.7% and 109.6% and 102.8% and 96.4% and 99.9% and 106.3% and 102.1% and 95.2% and 110.7% and 80.0% and 105.5% and 102.2% and 103.4% and 89.5% and 94.1% and 98.8% and 98.1% and 97.0% and 95.4%
same,mid-proAM Day = 3,"individual sepsis serum (one patient), after storage for 3 days at room temperature",1.0 nmol/l and 1.2 nmol/l and 2.1 nmol/l (2×) and 2.7 nmol/l (2×) and 3.1 nmol/l and 4.9 nmol/l and 5.9 nmol/l and 3.4 nmol/l and 4.6 nmol/l and 2.4 nmol/l and 1.3 nmol/l and 1.5 nmol/l (2×) and 1.8 nmol/l (2×) and 2.0 nmol/l and 6.1 nmol/l and 3.2 nmol/l
same,mid-proAM Day = 0,"individual sepsis serum (one patient), measured in a fresh state",1.1 nmol/L and 1.3 nmol/L and 1.9 nmol/L and 2.6 nmol/L and 2.8 nmol/L and 3.1 nmol/L and 4.6 nmol/L and 5.8 nmol/L and 3.6 nmol/L and 4.2 nmol/L and 3.0 nmol/L and 1.2 nmol/L and 1.5 nmol/L and 1.7 nmol/L and 2.0 nmol/L and 2.1 nmol/L and 6.2 nmol/L and 3.3 nmol/L and 2.2 nmol/L and 1.6 nmol/L
